The record followed here is FireProtDB (doi:10.1002/pro.100).

For the series the following is noted: Homo sapiens, 25 °C, Urea, Fluorescence, Potassium phosphate 25 mM, NaCl 25 mM, reversible: Yes, whole UniProt chain shown.

B1: Prolactin wild type, P01236 (protein)
chain: MNIKGSPWKGSLLLLLVSNLLLCQSVAPLPICPGGAARCQVTLRDLFDRAVVLSHYIHNLSSEMFSEFDKRYTHGRGFITKAINSCHTSSLATPEDKEQAQQMNQKDFLSLIVSILRSWNEPLYHLVTEVRGMQEAPEAILSKAVEIEEQTKRLLEGMELIVSQVHPETKENEIYPVWSGLPSLQMADEESRLSAYYNLLHCLRRDSHKIDNYLKLLKCRIIHNNNC
Consider B1, for which, for the setting “pH 5.8”, the denaturant m value worked out at 0.79 kcal/mol/M, the “denaturant midpoint (higher = more stable)” value turned out to be 5.48 M and the unfolding free energy amounted to 4.3 kcal/mol. Further, under “pH 7.8”, the denaturant m value was 1.35 kcal/mol/M, the “denaturant midpoint (higher = more stable)” value was 6.08 M and the unfolding free energy came to 8.2 kcal/mol.
